IntAct's records for PubMed 35512704

B1: Mothers against decapentaplegic homolog 4 (Homo sapiens), Q13485 (parent)
chain: MDNMSITNTPTSNDACLSIVHSLMCHRQGGESETFAKRAIESLVKKLKEKKDELDSLITAITTNGAHPSKCVTIQRTLDGRLQVAGRKGFPHVIYARLWRWPDLHKNELKHVKYCQYAFDLKCDSVCVNPYHYERVVSPGIDLSGLTLQSNAPSSMMVKDEYVHDFEGQPSLSTEGHSIQTIQHPPSNRASTETYSTPALLAPSESNATSTANFPNIPVASTSQPASILGGSHSEGLLQIASGPQPGQQQNGFTGQPATYHHNSTTTWTGSRTAPYTPNLPHHQNGHLQHHPPMPPHPGHYWPVHNELAFQPPISNHPAPEYWCSIAYFEMDVQVGETFKVPSSCPIVTVDGYVDPSGGDRFCLGQLSNVHRTEAIERARLHIGKGVQLECKGEGDVWVRCLSDHAVFVQSYYLDREAGRAPGDAVHKIYPSAYIKVFDLRQCHRQMQQQAATAQAAAAAQAAAVAGNIPGPGSVGGIAPAISLSAAAGIGVDDLRRLCILRMSFVKGWGPDYPRQSIKETPCWIEIHLHRALQLLDEVLHTMPIADPQPLD

Variants of: B1
Conditions: with smad3_human SMAD3, P84022

Variant | effect of a mutation on the interaction
R361H | disrupting interaction strength

Variants of: B1
Conditions: with agap2_human AGAP2, Q99490
Chain of agap2_human AGAP2, Q99490 (Q99490 whole entry): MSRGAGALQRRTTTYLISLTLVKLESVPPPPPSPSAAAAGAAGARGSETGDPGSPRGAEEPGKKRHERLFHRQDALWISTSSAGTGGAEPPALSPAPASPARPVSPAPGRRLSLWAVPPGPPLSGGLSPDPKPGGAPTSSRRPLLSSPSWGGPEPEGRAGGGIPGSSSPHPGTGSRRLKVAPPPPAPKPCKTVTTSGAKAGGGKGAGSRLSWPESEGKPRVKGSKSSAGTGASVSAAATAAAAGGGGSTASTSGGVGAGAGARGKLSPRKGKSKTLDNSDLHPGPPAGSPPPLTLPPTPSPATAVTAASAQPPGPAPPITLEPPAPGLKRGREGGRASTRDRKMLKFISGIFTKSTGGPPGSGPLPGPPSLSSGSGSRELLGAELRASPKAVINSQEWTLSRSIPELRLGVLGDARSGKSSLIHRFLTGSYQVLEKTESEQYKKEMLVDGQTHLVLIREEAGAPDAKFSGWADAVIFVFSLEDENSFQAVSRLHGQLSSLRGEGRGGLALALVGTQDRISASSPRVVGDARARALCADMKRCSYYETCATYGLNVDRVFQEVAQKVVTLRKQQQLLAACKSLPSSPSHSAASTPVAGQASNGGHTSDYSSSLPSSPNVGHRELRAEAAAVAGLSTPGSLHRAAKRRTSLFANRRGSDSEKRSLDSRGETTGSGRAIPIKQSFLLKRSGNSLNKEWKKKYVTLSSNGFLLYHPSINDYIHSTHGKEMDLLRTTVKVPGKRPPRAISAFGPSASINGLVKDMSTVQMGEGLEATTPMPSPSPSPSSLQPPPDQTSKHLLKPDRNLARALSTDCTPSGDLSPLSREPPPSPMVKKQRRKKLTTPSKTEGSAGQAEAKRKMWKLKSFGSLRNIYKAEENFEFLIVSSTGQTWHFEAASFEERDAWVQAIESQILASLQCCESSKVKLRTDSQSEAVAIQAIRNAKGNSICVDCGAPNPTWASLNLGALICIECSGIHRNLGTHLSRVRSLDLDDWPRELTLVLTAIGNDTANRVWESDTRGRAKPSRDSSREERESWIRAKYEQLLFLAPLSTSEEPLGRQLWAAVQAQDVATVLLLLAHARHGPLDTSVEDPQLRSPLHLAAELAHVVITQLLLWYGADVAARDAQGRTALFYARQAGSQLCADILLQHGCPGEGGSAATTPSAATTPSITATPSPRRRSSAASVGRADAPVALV

Variant | effect of a mutation on the interaction
R361H | with no effect

Variants of: B1
Conditions: with ajuba_human AJUBA

Variant | effect of a mutation on the interaction
R361H | with no effect

Variants of: B1
Conditions: with akt1_human AKT1, P31749

Variant | effect of a mutation on the interaction
R361H | with no effect

Variants of: B1
Conditions: with akts1_human AKT1S1, Q96B36

Variant | effect of a mutation on the interaction
R361H | with no effect

Variants of: B1
Conditions: with akt3_human AKT3, Q9Y243

Variant | effect of a mutation on the interaction
R361H | with no effect

Variants of: B1
Conditions: with alk_human ALK

Variant | effect of a mutation on the interaction
R361H | with no effect

Variants of: B1
Conditions: with aph1a_human APH1A

Variant | effect of a mutation on the interaction
R361H | with no effect

Variants of: B1
Conditions: with arnt_human ARNT

Variant | effect of a mutation on the interaction
R361H | with no effect

Variants of: B1
Conditions: with arc1a_human ARPC1A

Variant | effect of a mutation on the interaction
R361H | with no effect

Variants of: B1
Conditions: with asxl1_human ASXL1, Q8IXJ9

Variant | effect of a mutation on the interaction
R361H | with no effect

Variants of: B1
Conditions: with bakor_human ATG14, Q6ZNE5

Variant | effect of a mutation on the interaction
R361H | with no effect

Variants of: B1
Conditions: with atpb_human ATP5F1B

Variant | effect of a mutation on the interaction
R361H | with no effect

Variants of: B1
Conditions: with aurkb_human AURKB

Variant | effect of a mutation on the interaction
R361H | with no effect

Variants of: B1
Conditions: with ufo_human AXL

Variant | effect of a mutation on the interaction
R361H | with no effect

Variants of: B1
Conditions: with za2g_human AZGP1, P25311
Chain of za2g_human AZGP1, P25311 (P25311 whole entry): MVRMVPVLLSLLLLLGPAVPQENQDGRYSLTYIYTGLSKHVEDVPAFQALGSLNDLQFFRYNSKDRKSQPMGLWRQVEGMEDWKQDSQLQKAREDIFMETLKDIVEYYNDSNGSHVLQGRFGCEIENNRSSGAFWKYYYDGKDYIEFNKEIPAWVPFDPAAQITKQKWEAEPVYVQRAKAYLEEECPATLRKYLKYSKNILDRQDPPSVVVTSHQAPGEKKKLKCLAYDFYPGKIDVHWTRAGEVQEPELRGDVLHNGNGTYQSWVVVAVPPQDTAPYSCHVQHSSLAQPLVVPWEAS

Variant | effect of a mutation on the interaction
R361H | with no effect

Variants of: B1
Conditions: with b2mg_human B2M

Variant | effect of a mutation on the interaction
R361H | with no effect

Variants of: B1
Conditions: with bap1_human BAP1, Q92560
Chain of bap1_human BAP1, Q92560 (Q92560 whole entry): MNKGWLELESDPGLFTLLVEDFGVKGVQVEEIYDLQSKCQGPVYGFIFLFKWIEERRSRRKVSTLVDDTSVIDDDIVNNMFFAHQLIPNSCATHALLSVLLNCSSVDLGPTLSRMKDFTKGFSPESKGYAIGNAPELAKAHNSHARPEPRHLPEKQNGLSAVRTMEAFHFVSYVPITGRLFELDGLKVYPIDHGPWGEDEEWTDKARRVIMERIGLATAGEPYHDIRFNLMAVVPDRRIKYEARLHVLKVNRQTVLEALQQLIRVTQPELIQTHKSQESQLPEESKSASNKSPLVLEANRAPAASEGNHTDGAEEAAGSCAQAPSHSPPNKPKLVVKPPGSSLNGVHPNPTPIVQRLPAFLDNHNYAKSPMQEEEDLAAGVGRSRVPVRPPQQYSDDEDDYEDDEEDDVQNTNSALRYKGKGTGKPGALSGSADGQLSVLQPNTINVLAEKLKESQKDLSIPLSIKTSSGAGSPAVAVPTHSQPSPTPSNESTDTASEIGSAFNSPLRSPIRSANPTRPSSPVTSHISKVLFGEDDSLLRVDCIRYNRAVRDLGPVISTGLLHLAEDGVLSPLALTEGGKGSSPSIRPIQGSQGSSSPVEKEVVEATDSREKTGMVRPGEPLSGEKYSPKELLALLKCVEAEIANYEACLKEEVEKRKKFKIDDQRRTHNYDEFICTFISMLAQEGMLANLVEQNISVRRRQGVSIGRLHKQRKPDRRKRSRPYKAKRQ

Variant | effect of a mutation on the interaction
R361H | with no effect

Variants of: B1
Conditions: with becn1_human BECN1, Q14457

Variant | effect of a mutation on the interaction
R361H | with no effect

Variants of: B1
Conditions: with birc2_human BIRC2, Q13490

Variant | effect of a mutation on the interaction
R361H | with no effect

Variants of: B1
Conditions: with braf_human BRAF

Variant | effect of a mutation on the interaction
R361H | with no effect

Variants of: B1
Conditions: with baba2_human BABAM2, Q9NXR7

Variant | effect of a mutation on the interaction
R361H | with no effect

Variants of: B1
Conditions: with cbl_human CBL

Variant | effect of a mutation on the interaction
R361H | with no effect

Variants of: B1
Conditions: with cblb_human CBLB

Variant | effect of a mutation on the interaction
R361H | with no effect

Variants of: B1
Conditions: with ccnd2_human CCND2, P30279

Variant | effect of a mutation on the interaction
R361H | with no effect

Variants of: B1
Conditions: with ccnd3_human CCND3, P30281

Variant | effect of a mutation on the interaction
R361H | with no effect

Variants of: B1
Conditions: with cd44_human CD44, P16070

Variant | effect of a mutation on the interaction
R361H | with no effect

Variants of: B1
Conditions: with cd79b_human CD79B

Variant | effect of a mutation on the interaction
R361H | with no effect

Variants of: B1
Conditions: with cdn2b_human CDKN2B

Variant | effect of a mutation on the interaction
R361H | with no effect

Variants of: B1
Conditions: with cdn2c_human CDKN2C

Variant | effect of a mutation on the interaction
R361H | with no effect

Variants of: B1
Conditions: with cebpa_human CEBPA

Variant | effect of a mutation on the interaction
R361H | with no effect

Variants of: B1
Conditions: with chd1l_human CHD1L

Variant | effect of a mutation on the interaction
R361H | with no effect

Variants of: B1
Conditions: with ch3l1_human CHI3L1, P36222

Variant | effect of a mutation on the interaction
R361H | with no effect

Variants of: B1
Conditions: with ctna1_human CTNNA1, P35221

Variant | effect of a mutation on the interaction
R361H | with no effect

Variants of: B1
Conditions: with ctnb1_human CTNNB1, P35222

Variant | effect of a mutation on the interaction
R361H | with no effect

Variants of: B1
Conditions: with cul3_human CUL3, Q13618

Variant | effect of a mutation on the interaction
R361H | with no effect

Variants of: B1
Conditions: with cul4b_human CUL4B

Variant | effect of a mutation on the interaction
R361H | with no effect

Variants of: B1
Conditions: with dicer_human DICER1, Q9UPY3

Variant | effect of a mutation on the interaction
R361H | with no effect

Variants of: B1
Conditions: with dll3_human DLL3, Q9NYJ7

Variant | effect of a mutation on the interaction
R361H | with no effect

Variants of: B1
Conditions: with duox2_human DUOX2, Q9NRD8

Variant | effect of a mutation on the interaction
R361H | with no effect

Variants of: B1
Conditions: with e2f3_human E2F3, O00716
Chain of e2f3_human E2F3, O00716 (O00716 whole entry): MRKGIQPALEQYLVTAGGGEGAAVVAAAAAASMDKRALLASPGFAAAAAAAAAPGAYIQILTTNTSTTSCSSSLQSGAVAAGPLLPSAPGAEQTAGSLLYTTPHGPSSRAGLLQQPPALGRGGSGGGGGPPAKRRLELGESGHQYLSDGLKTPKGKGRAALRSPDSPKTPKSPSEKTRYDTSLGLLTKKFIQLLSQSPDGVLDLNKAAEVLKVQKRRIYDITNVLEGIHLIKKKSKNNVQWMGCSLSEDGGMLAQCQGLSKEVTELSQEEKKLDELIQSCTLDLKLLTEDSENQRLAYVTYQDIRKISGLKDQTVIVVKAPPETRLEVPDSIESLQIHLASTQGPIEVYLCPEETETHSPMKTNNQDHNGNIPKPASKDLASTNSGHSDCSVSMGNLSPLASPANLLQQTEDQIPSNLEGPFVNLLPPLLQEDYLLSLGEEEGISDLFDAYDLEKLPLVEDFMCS

Variant | effect of a mutation on the interaction
R361H | with no effect

Variants of: B1
Conditions: with e2f4_human E2F4, Q16254

Variant | effect of a mutation on the interaction
R361H | with no effect

Variants of: B1
Conditions: with e2f5_human E2F5, Q15329

Variant | effect of a mutation on the interaction
R361H | with no effect

Variants of: B1
Conditions: with if4e_human EIF4E

Variant | effect of a mutation on the interaction
R361H | with no effect

Variants of: B1
Conditions: with epha2_human EPHA2, P29317

Variant | effect of a mutation on the interaction
R361H | with no effect

Variants of: B1
Conditions: with epha7_human EPHA7, Q15375
Chain of epha7_human EPHA7, Q15375 (Q15375 whole entry, looked up): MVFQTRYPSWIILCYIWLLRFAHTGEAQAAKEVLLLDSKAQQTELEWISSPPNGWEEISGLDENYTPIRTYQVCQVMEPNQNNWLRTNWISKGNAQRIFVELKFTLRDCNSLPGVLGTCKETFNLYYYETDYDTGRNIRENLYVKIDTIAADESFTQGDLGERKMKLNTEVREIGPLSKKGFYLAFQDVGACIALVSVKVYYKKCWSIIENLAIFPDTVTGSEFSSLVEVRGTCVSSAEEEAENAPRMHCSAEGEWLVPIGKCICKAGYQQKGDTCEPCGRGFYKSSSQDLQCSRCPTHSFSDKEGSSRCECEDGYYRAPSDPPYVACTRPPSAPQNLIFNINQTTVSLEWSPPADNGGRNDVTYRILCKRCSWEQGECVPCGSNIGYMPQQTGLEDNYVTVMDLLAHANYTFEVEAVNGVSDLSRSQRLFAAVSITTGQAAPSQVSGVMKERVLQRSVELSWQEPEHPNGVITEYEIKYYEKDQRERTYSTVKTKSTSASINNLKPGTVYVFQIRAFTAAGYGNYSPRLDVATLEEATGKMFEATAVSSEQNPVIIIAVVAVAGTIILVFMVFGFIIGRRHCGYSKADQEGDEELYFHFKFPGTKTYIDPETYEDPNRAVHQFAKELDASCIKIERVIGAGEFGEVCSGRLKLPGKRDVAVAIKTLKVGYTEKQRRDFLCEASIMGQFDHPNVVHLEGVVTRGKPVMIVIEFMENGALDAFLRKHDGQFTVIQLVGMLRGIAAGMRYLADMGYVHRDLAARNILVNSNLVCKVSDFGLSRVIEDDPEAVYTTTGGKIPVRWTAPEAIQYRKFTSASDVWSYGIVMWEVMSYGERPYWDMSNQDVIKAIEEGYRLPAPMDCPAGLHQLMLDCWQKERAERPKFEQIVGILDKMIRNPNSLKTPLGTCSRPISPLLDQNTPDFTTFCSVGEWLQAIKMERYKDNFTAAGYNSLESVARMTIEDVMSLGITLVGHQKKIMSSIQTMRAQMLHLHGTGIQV

Variant | effect of a mutation on the interaction
R361H | with no effect

Variants of: B1
Conditions: with ephb1_human EPHB1, P54762

Variant | effect of a mutation on the interaction
R361H | with no effect

Variants of: B1
Conditions: with erbb3_human ERBB3, P21860

Variant | effect of a mutation on the interaction
R361H | with no effect

Variants of: B1
Conditions: with erbb4_human ERBB4, Q15303

Variant | effect of a mutation on the interaction
R361H | with no effect

Variants of: B1
Conditions: with esr1_human ESR1, P03372

Variant | effect of a mutation on the interaction
R361H | with no effect

Variants of: B1
Conditions: with etv1_human ETV1, P50549

Variant | effect of a mutation on the interaction
R361H | with no effect

Variants of: B1
Conditions: with fadd_human FADD

Variant | effect of a mutation on the interaction
R361H | with no effect

Variants of: B1
Conditions: with facd2_human FANCD2, Q9BXW9

Variant | effect of a mutation on the interaction
R361H | with no effect

Variants of: B1
Conditions: with fgf19_human FGF19, O95750

Variant | effect of a mutation on the interaction
R361H | with no effect

Variants of: B1
Conditions: with fgfr3_human FGFR3, P22607

Variant | effect of a mutation on the interaction
R361H | with no effect

Variants of: B1
Conditions: with fgfr4_human FGFR4, P22455

Variant | effect of a mutation on the interaction
R361H | with no effect

Variants of: B1
Conditions: with foxo1_human FOXO1, Q12778

Variant | effect of a mutation on the interaction
R361H | with no effect

Variants of: B1
Conditions: with gbra6_human GABRA6, Q16445

Variant | effect of a mutation on the interaction
R361H | with no effect

Variants of: B1
Conditions: with gata2_human GATA2, P23769

Variant | effect of a mutation on the interaction
R361H | with no effect

Variants of: B1
Conditions: with gata3_human GATA3, P23771

Variant | effect of a mutation on the interaction
R361H | with no effect

Variants of: B1
Conditions: with gna11_human GNA11, P29992

Variant | effect of a mutation on the interaction
R361H | with no effect

Variants of: B1
Conditions: with gnaq_human GNAQ

Variant | effect of a mutation on the interaction
R361H | with no effect

Variants of: B1
Conditions: with grm1_human GRM1, Q13255
Chain of grm1_human GRM1, Q13255 (Q13255 whole entry, looked up): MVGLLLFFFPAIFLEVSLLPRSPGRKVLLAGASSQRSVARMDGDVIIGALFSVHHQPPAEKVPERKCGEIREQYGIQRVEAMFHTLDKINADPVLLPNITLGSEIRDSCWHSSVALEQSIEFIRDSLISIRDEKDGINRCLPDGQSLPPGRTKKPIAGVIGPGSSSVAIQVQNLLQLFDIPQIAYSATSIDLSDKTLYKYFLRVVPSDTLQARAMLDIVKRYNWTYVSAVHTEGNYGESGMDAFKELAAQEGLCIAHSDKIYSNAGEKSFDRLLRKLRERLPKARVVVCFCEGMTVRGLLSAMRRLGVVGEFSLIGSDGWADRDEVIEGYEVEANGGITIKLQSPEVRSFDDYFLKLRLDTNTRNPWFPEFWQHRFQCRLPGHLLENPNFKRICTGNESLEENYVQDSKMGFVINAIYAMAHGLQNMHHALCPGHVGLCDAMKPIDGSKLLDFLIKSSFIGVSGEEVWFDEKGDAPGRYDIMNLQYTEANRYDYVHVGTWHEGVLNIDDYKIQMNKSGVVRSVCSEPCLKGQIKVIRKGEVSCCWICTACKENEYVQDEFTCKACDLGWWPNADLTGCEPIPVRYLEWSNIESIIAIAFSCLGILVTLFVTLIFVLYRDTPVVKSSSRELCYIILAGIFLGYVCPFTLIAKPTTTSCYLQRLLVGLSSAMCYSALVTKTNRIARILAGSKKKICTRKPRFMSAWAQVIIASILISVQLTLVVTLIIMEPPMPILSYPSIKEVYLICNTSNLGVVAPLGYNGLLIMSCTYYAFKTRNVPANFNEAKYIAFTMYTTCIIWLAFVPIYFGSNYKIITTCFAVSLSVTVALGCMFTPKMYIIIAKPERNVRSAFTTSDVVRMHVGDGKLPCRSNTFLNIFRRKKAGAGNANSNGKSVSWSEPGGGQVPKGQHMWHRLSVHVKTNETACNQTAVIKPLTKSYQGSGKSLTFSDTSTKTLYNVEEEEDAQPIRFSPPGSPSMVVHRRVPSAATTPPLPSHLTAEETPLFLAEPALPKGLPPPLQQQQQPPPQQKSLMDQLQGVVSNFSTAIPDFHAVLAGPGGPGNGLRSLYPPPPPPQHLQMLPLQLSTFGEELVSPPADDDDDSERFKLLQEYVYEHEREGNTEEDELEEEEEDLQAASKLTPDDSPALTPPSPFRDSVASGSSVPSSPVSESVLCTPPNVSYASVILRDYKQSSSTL

Variant | effect of a mutation on the interaction
R361H | with no effect

Variants of: B1
Conditions: with grm3_human GRM3, Q14832

Variant | effect of a mutation on the interaction
R361H | with no effect

Variants of: B1
Conditions: with gsk3a_human GSK3A

Variant | effect of a mutation on the interaction
R361H | with no effect

Variants of: B1
Conditions: with hdac1_human HDAC1, Q13547

Variant | effect of a mutation on the interaction
R361H | with no effect

Variants of: B1
Conditions: with hdac3_human HDAC3, O15379

Variant | effect of a mutation on the interaction
R361H | with no effect

Variants of: B1
Conditions: with hgf_human HGF

Variant | effect of a mutation on the interaction
R361H | with no effect

Variants of: B1
Conditions: with h31_human H3C1, P68431

Variant | effect of a mutation on the interaction
R361H | with no effect

Variants of: B1
Conditions: with hlab_human HLA-B

Variant | effect of a mutation on the interaction
R361H | with no effect

Variants of: B1
Conditions: with hnf1a_human HNF1A

Variant | effect of a mutation on the interaction
R361H | with no effect

Variants of: B1
Conditions: with rash_human HRAS

Variant | effect of a mutation on the interaction
R361H | with no effect

Variants of: B1
Conditions: with hs90a_human HSP90AA1, P07900

Variant | effect of a mutation on the interaction
R361H | with no effect

Variants of: B1
Conditions: with hs90b_human HSP90AB1, P08238

Variant | effect of a mutation on the interaction
R361H | with no effect

Variants of: B1
Conditions: with il7ra_human IL7R

Variant | effect of a mutation on the interaction
R361H | with no effect

Variants of: B1
Conditions: with irf6_human IRF6, O14896

Variant | effect of a mutation on the interaction
R361H | with no effect

Variants of: B1
Conditions: with irs1_human IRS1, P35568

Variant | effect of a mutation on the interaction
R361H | with no effect

Variants of: B1
Conditions: with jak1_human JAK1, P23458

Variant | effect of a mutation on the interaction
R361H | with no effect

Variants of: B1
Conditions: with kdm5c_human KDM5C

Variant | effect of a mutation on the interaction
R361H | with no effect

Variants of: B1
Conditions: with vgfr2_human KDR

Variant | effect of a mutation on the interaction
R361H | with no effect

Variants of: B1
Conditions: with keap1_human KEAP1, Q14145

Variant | effect of a mutation on the interaction
R361H | with no effect

Variants of: B1
Conditions: with klf4_human KLF4, O43474

Variant | effect of a mutation on the interaction
R361H | with no effect
